Reference: the supplement of paper PMC7125110
± gives the standard error. Fewer inactive variants are shown than the library holds.

B1: glmS ribozyme (parent)
chain: AUAAAAGCGCCAGAACUACAGAAAUGUAGUUGACGAGGAGGAGGUUUAUCGAAUUUUCGGCGGAUGCCUCCAAA

How the values were obtained:
Details in all cases: with glucosamine-6-phosphate
glucosamine-6-phosphate [1] = variants of: B1; experiment: self-cleavage kobs at 640 uM GlcN6P; higher = faster cleavage; RNA array
Procedure, shortened: (§1)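 Glucosamine-6-phosphate, from 40 μM to 10 mM in HEPES/KCl/Mg(OAc)2 buffer, was flowed over sequenced MiSeq chips carrying barcoded ribozyme variants transcribed in situ by E. coli RNA polymerase. A hybridised Cy3 probe tracked the variants at 37 °C as tiles were imaged over ~14 h. kobs, kcat and KM were obtained by fitting normalised per-tile medians to exponential decays and then applying weighted Michaelis–Menten fits across concentrations.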

glucosamine-6-phosphate [2] = variants of: B1; experiment: self-cleavage kobs at 2500 uM GlcN6P; higher = faster cleavage; RNA array
Procedure, shortened: as §1

glucosamine-6-phosphate [3] = variants of: B1; experiment: self-cleavage kobs at 10000 uM GlcN6P; higher = faster cleavage; RNA array
Procedure, shortened: as §1

Variant | self-cleavage kobs at 640 uM GlcN6P (glucosamine-6-phosphate [1]) | self-cleavage kobs at 2500 uM GlcN6P (glucosamine-6-phosphate [2]) | self-cleavage kobs at 10000 uM GlcN6P (glucosamine-6-phosphate [3])
A14G U45G C58U G62A | < 1e-05 s⁻¹ | < 1e-05 s⁻¹ | 
U55A G60C U65A | < 1e-05 s⁻¹ | < 1e-05 s⁻¹ | 
A42G G43A C67U C68U | 0.000241 ± 0.00011 s⁻¹ |  | 0.000713 ± 0.00018 s⁻¹
A36U U65C C70G | 0.000173 ± 7.9e-05 s⁻¹ |  | 
C8G C11U A36U | < 1e-05 s⁻¹ | < 1e-05 s⁻¹ | 
A12C A42U C68U | 5.31e-05 ± 1.5e-05 s⁻¹ | 0.000111 ± 2.6e-05 s⁻¹ | 
U45C G63U C67U | < 1e-05 s⁻¹ |  | 
A14U A33U C50G G66U | 0.0013 ± 0.00063 s⁻¹ | 6.05e-05 ± 2.7e-05 s⁻¹ | 
G38C G43C C68U | < 1e-05 s⁻¹ |  | 
A12U U56C C71A | 5.04e-05 ± 1.6e-05 s⁻¹ | 0.00012 ± 4e-05 s⁻¹ | 
C11A G13C U57G | < 1e-05 s⁻¹ |  | 
A36C C67A | < 1e-05 s⁻¹ |  | 
C8U A14G G32U A33C | < 1e-05 s⁻¹ |  | 
G38C C50G C67G | 6.94e-05 ± 1.3e-05 s⁻¹ | 0.000141 ± 4.2e-05 s⁻¹ | 
C34A A42C C61U | < 1e-05 s⁻¹ | < 1e-05 s⁻¹ | 
U2A G44U | 0.000101 ± 1.5e-05 s⁻¹ | 0.000228 ± 6.3e-05 s⁻¹ | 
A48C G60C C71G | < 1e-05 s⁻¹ | < 1e-05 s⁻¹ | 

Variant | self-cleavage kobs at 640 uM GlcN6P (glucosamine-6-phosphate [1]) | self-cleavage kobs at 2500 uM GlcN6P (glucosamine-6-phosphate [2]) | self-cleavage kobs at 10000 uM GlcN6P (glucosamine-6-phosphate [3])
C16A U30G G35A U69C | < 1e-05 s⁻¹ | < 1e-05 s⁻¹ | 
G29C G44C C71U | < 1e-05 s⁻¹ |  | 
A15G U30A A39U | 0.00404 ± 0.0016 s⁻¹ | 0.00871 ± 0.0024 s⁻¹ | 0.0247 ± 0.0076 s⁻¹
C10U C34G U46A A48U U69A | < 1e-05 s⁻¹ | < 1e-05 s⁻¹ | < 1e-05 s⁻¹
C50U U57A C68A U69G C71G | 8.81e-05 ± 3.4e-05 s⁻¹ |  | 
C50G G62A C68G | 0.000159 ± 4.6e-05 s⁻¹ |  | 0.000111 ± 2.9e-05 s⁻¹
A36G A53U C68A C71G | 8.35e-05 ± 2e-05 s⁻¹ |  | 
U31G U65A | 0.000295 ± 0.00011 s⁻¹ |  | 0.00166 ± 0.00049 s⁻¹
G7A G29U C34U | < 1e-05 s⁻¹ |  | 
U47A C61U U69G | 0.00233 ± 0.0008 s⁻¹ |  | 
G40C A48G U56G G59U A64C C70G | < 1e-05 s⁻¹ |  | 
A14U U46A C68U | 4.63e-05 ± 1.7e-05 s⁻¹ | 0.000119 ± 2e-05 s⁻¹ | 
U30A G44C U45G A48C U57A | < 1e-05 s⁻¹ |  | 
G7C G26U G29U U57C A64U U65C | < 1e-05 s⁻¹ |  | 
C10U C11A G43A C68G C70U | < 1e-05 s⁻¹ |  | 
G9C C11U U56G G66C | < 1e-05 s⁻¹ |  | 
A15U C16A U47A C61G C68G | 8.84e-05 ± 3.3e-05 s⁻¹ |  | 
